What was measured:
C2C12 myotubes = assay: C2C12 myotube size after exposure to recombinant IGFBP1; type: cell-based; details: recombinant IGFBP1 100 ng/ml, 48 hours
Protocol: (§1) C2C12 myotubes were produced by exposing fully confluent myoblasts to DMEM containing 2% horse serum, 2 mM L-glutamine and 1% P/S, replacing the media every other day for 5 days. At 5 days post differentiation, myotubes were exposed to recombinant IGFBP1 (100 ng/ml) or empty vehicle control for 48 hours. FIG. 9 presents the results.
For myotube size: Differentiated C2C12 myotubes were fixed in ice-cold acetone: methanol for ten minutes, blocked for 1 h at room temperature and incubated overnight at 4° C. with an anti-myosin heavy chain antibody (MF-20, 1:100, Developmental Studies Hybridoma Bank). The following day, myotubes were incubated for 1 h at room temperature with an AlexaFluor 594-labeled secondary antibody (A11032, 1:500; Invitrogen). Myotubes were observed under an Axio Observer.Z1 motorized microscope (Zeiss) and analysis was performed by measuring the diameter of the narrowest portion along the multi-nucleate fibers (n=600 fibers per condition) using ImageJ software.

HSMM myotubes = assay: HSMM myotube atrophy after recombinant IGFBP1; type: cell-based, human
[1] = test system: osteoclast precursor cells; assay: Osteoclast differentiation assay, pre-osteoclast cultures exposed to rmIGFBP1, TRAP stain; type: cell-based, mice; details: 50 ng/mL recombinant IGFBP1, 48 h
Protocol: The quantification of osteoclast differentiation in pre-osteoclast cultures exposed to rmIGFBP1 and stained for TRAP (n=5) is shown in FIG. 6. Furthermore, quantification of osteoclast differentiation in pre-osteoclasts co-cultured with AML12 previously exposed to CRC and treated with anti-IGFBP1 antibody (n=5) is shown in FIG. 7. The osteoclast differentiation assay was conducted as follows:
Bone marrow cells were isolated from at least two 4-month-old wild-type male C57BL/6 mice by flushing the bone marrow out from both tibiae and femora with 10% FBS and 1% P/S-α-MEM. Cells were cultured for 48 h. Non-adherent cells were then collected and 14×10^4 cells/cm2 were seeded on 96-well plates and cultured with RANKL 80 ng/ml (PeproTech) and M-CSF 20 ng/ml (PeproTech) added to induce osteoclast differentiation, the media was changed every 2 days. After 3 days of differentiation, 50 ng/mL of recombinant IGFBP1 or Vehicle (Control) was added to the osteoclast differentiation media for 48 h, after which cells were fixed for staining. […] Images were acquired using Axio Observer. Z1 motorized microscope (Zeiss, Oberkochen, Germany).

ITGB1 signaling = assay: Western blotting of ITGB1 signaling in myotubes exposed to recombinant IGFBP1; type: cell-based
Protocol: as §1
For western blots (FIG. 9): Cell layer protein extracts were obtained by homogenizing entire well surface in ice-cold RIPA buffer [150 mM NaCl, 1.0% NP-40, 0.5% sodium deoxycholate, 0.1% SDS and 50 mM Tris (pH 8.0)] supplemented with inhibitor cocktails for proteases (11697498001, Roche) and phosphatases (78428, Thermo Fisher Scientific). Following a 10-min incubation on ice, cellular debris was removed by centrifugation (15 min, 14,000 g at 4° C.), the supernatant was collected and protein concentration was assessed using the BCA protein assay method (Thermo Fisher Scientific). Protein extracts (30 μg) were electrophoresed in 4-15% gradient SDS Criterion TGX precast gels (Bio-Rad) and transferred to nitrocellulose membranes (30 min at 100 V; Bio-Rad). […] Blots were again serially washed using PBST and then visualized and quantified using the Odyssey Infrared Imaging System (LI-COR Biosciences). […]

B1: recombinant IGFBP1: recombinant insulin-like growth factor binding protein 1 (protein)
chain: APQPWHCAPCTAERLGLCPPVPASCPEISRPAGCGCCPTCALPMGAACGVATARCAQGLSCRALPGEPRPLHALTRGQGACVPEPAAPATSTLFSSQHEEAKAAVVSADELSESPEMTEEQLLDSFHLMAPSREDQPILWNAISTYSSMRAREIADLKKWKEPCQRELYKVLERLAAAQQKAGDEIYKFYLPNCNKNGFYHSKQCETSLDGEAGLCWCVYPWSGKKIPGSLETRGDPNCHQYFNVHN
- atrophy of C2C12 myotubes (C2C12 myotubes): promoting atrophy
- atrophy of C2C12 myotubes (C2C12 myotubes; listed as Recombinant IGFBP1): promoted
- atrophy of HSMM myotubes (HSMM myotubes): promoting atrophy
- differentiation of osteoclast precursor cells [1]: sufficient to promote differentiation
- differentiation of osteoclast precursor cells ([1]; listed as Recombinant IGFBP1): promoted
- ERK phosphorylation (ITGB1 signaling): increased
- FAK phosphorylation (ITGB1 signaling): increased
